According to patent publication US8541373B2, “BChE albumin fusions for the treatment of cocaine abuse” (priority 2009, dated 2013):

System: cocaine
Assay: Plasma cocaine, benzoylecgonine and ecgonine methyl ester (LC-MS) and cocaine PK after IV cocaine post-AlbuBChE
Assay type: in vivo, cynomolgus monkeys
Experimental: Blood was placed into K2EDTA blood collection tubes with esterase inhibitor diisopropylfluorophosphate (DFP). Tubes were inverted several times and placed on wet ice upon collection. Samples were centrifuged at 2-8° C. within 45 minutes of collection. The resultant plasma was recovered and a single 200 μL aliquot of plasma was placed into polypropylene tubes. Plasma samples were frozen over dry ice and stored at −75±15° C.
The following outline describes the LC-MS-based assay employed for the measurement of cocaine in plasma samples. Prior to MS analysis, plasma samples, calibration standards and controls were extracted using supported liquid extraction (SLE-ISOLUTE, Biotage). Twenty-five microliters of samples (25 μL) received 150 μl of 5% Ammonium hydroxide and 25 μl internal standard solution (Cocaine-d3). After mixing and transfer to SLE plate, samples were eluted with methylene chloride and evaporated to dryness. After resuspension in 50 μl of reconstitution solution—5% ACM in 10 mM ammonium acetate in water, 10 μl was injected onto Thermo Hypercarb column at 0.5 ml/min. Mobile phase was biphasic. Mass spectrophotometric detection was performed using Api 4000, APCI positive interface and Multiple Reaction Monitoring (MRM). Plasma concentrations of cocaine, benzoylecgonine and ecgonine methyl ester were determined using this assay.
When the data permits, pharmacokinetic parameter values for cocaine and its metabolites were determined using plasma concentration-times profiles for individual animals at all the study days of cocaine administration. […] Specifically the model for non-compartmental analysis with IV bolus input for cocaine and extravascular input for the metabolites.

[1] = 0.2 mg/kg IM, cocaine 1 mg/kg IV 120 hr post-AlbuBChE, 40 min after cocaine
[2] = 0.2 mg/kg IM, cocaine 1 mg/kg IV 120 hr post-AlbuBChE, 60 min after cocaine
[3] = 0.2 mg/kg IM, cocaine 1 mg/kg IV 240 hr post-AlbuBChE
[4] = 0.2 mg/kg IM, cocaine 1 mg/kg IV 240 hr post-AlbuBChE, 5 min after cocaine
[5] = 0.2 mg/kg IM, cocaine 1 mg/kg IV 240 hr post-AlbuBChE, 10 min after cocaine
[6] = 0.2 mg/kg IM, cocaine 1 mg/kg IV 240 hr post-AlbuBChE, 15 min after cocaine
[7] = 0.2 mg/kg IM, cocaine 1 mg/kg IV 240 hr post-AlbuBChE, 20 min after cocaine
[8] = 0.2 mg/kg IM, cocaine 1 mg/kg IV 240 hr post-AlbuBChE, 30 min after cocaine
[9] = 0.2 mg/kg IM, cocaine 1 mg/kg IV 240 hr post-AlbuBChE, 40 min after cocaine
[10] = 0.2 mg/kg IM, cocaine 1 mg/kg IV 240 hr post-AlbuBChE, 60 min after cocaine
[11] = 1 mg/kg IM, cocaine 1 mg/kg IV 2 hr post-AlbuBChE
[12] = 1 mg/kg IM, cocaine 1 mg/kg IV 2 hr post-AlbuBChE, 5 min after cocaine
[13] = 1 mg/kg IM, cocaine 1 mg/kg IV 2 hr post-AlbuBChE, 10 min after cocaine
[14] = 1 mg/kg IM, cocaine 1 mg/kg IV 2 hr post-AlbuBChE, 15 min after cocaine
[15] = 1 mg/kg IM, cocaine 1 mg/kg IV 2 hr post-AlbuBChE, 20 min after cocaine
[16] = 1 mg/kg IM, cocaine 1 mg/kg IV 2 hr post-AlbuBChE, 30 min after cocaine
[17] = 1 mg/kg IM, cocaine 1 mg/kg IV 2 hr post-AlbuBChE, 40 min after cocaine
[18] = 1 mg/kg IM, cocaine 1 mg/kg IV 2 hr post-AlbuBChE, 60 min after cocaine
[19] = 1 mg/kg IM, cocaine 1 mg/kg IV 48 hr post-AlbuBChE
[20] = 1 mg/kg IM, cocaine 1 mg/kg IV 48 hr post-AlbuBChE, 5 min after cocaine
[21] = 1 mg/kg IM, cocaine 1 mg/kg IV 48 hr post-AlbuBChE, 10 min after cocaine
[22] = 1 mg/kg IM, cocaine 1 mg/kg IV 48 hr post-AlbuBChE, 15 min after cocaine
[23] = 1 mg/kg IM, cocaine 1 mg/kg IV 48 hr post-AlbuBChE, 20 min after cocaine
[24] = 1 mg/kg IM, cocaine 1 mg/kg IV 48 hr post-AlbuBChE, 30 min after cocaine
[25] = 1 mg/kg IM, cocaine 1 mg/kg IV 48 hr post-AlbuBChE, 40 min after cocaine
[26] = 1 mg/kg IM, cocaine 1 mg/kg IV 48 hr post-AlbuBChE, 60 min after cocaine
[27] = 1 mg/kg IM, cocaine 1 mg/kg IV 96 hr post-AlbuBChE
[28] = 1 mg/kg IM, cocaine 1 mg/kg IV 96 hr post-AlbuBChE, 5 min after cocaine
[29] = 1 mg/kg IM, cocaine 1 mg/kg IV 96 hr post-AlbuBChE, 10 min after cocaine
[30] = 1 mg/kg IM, cocaine 1 mg/kg IV 96 hr post-AlbuBChE, 15 min after cocaine

AlbuBChE
Ecgonine methyl ester plasma concentration (mean) [1]: 98 ng/mL | Mean benzoylecgonine plasma concentration [1]: 61.4 ng/mL | Mean cocaine plasma concentration [1]: 141 ng/mL | Ecgonine methyl ester plasma concentration (mean) [2]: 82.9 ng/mL | Mean benzoylecgonine plasma concentration [2]: 66.2 ng/mL | Mean cocaine plasma concentration [2]: 64.7 ng/mL | Mean benzoylecgonine AUC(0-t) [3]: 4089 ng·min/mL | Mean cocaine AUC % Extrap [3]: 21.6% | Mean cocaine AUC(0-t) [3]: 13693 ng·min/mL | Mean cocaine AUC(0-∞) [3]: 17650 ng·min/mL | Mean cocaine C0 [3]: 549 ng/mL | Mean cocaine CI [3]: 57.4 mL/min/kg | Mean cocaine Vss [3]: 2.181 L/kg | Mean cocaine t½ [3]: 29.2 min | Ecgonine methyl ester plasma concentration (mean) [4]: 20.1 ng/mL | Mean benzoylecgonine plasma concentration [4]: 53.5 ng/mL | Mean cocaine plasma concentration [4]: 453 ng/mL | Ecgonine methyl ester plasma concentration (mean) [5]: 23.1 ng/mL | Mean benzoylecgonine plasma concentration [5]: 53.3 ng/mL | Mean cocaine plasma concentration [5]: 379 ng/mL | Ecgonine methyl ester plasma concentration (mean) [6]: 25.1 ng/mL | Mean benzoylecgonine plasma concentration [6]: 62.9 ng/mL | Mean cocaine plasma concentration [6]: 297 ng/mL | Ecgonine methyl ester plasma concentration (mean) [7]: 28.3 ng/mL | Mean benzoylecgonine plasma concentration [7]: 63.7 ng/mL | Mean cocaine plasma concentration [7]: 254 ng/mL | Ecgonine methyl ester plasma concentration (mean) [8]: 33.9 ng/mL | Mean benzoylecgonine plasma concentration [8]: 69.8 ng/mL | Mean cocaine plasma concentration [8]: 189 ng/mL | Ecgonine methyl ester plasma concentration (mean) [9]: 38.8 ng/mL | Mean benzoylecgonine plasma concentration [9]: 74.5 ng/mL | Mean cocaine plasma concentration [9]: 133 ng/mL | Ecgonine methyl ester plasma concentration (mean) [10]: 41.4 ng/mL | Mean benzoylecgonine plasma concentration [10]: 80.9 ng/mL | Mean cocaine plasma concentration [10]: 89.5 ng/mL | Mean benzoylecgonine AUC(0-t) [11]: 1960 ng·min/mL | Mean cocaine AUC(0-t) [11]: 7880 ng·min/mL | Mean cocaine C0 [11]: 422 ng/mL | Ecgonine methyl ester plasma concentration (mean) [12]: 235 ng/mL | Mean benzoylecgonine plasma concentration [12]: 30.1 ng/mL | Mean cocaine plasma concentration [12]: 308 ng/mL | Ecgonine methyl ester plasma concentration (mean) [13]: 227 ng/mL | Mean benzoylecgonine plasma concentration [13]: 33.2 ng/mL | Mean cocaine plasma concentration [13]: 235 ng/mL | Ecgonine methyl ester plasma concentration (mean) [14]: 276 ng/mL | Mean benzoylecgonine plasma concentration [14]: 32.5 ng/mL | Mean cocaine plasma concentration [14]: 179 ng/mL | Ecgonine methyl ester plasma concentration (mean) [15]: 301 ng/mL | Mean benzoylecgonine plasma concentration [15]: 32.5 ng/mL | Mean cocaine plasma concentration [15]: 73.7 ng/mL | Ecgonine methyl ester plasma concentration (mean) [16]: 291 ng/mL | Mean benzoylecgonine plasma concentration [16]: 28.9 ng/mL | Mean cocaine plasma concentration [16]: 102 ng/mL | Ecgonine methyl ester plasma concentration (mean) [17]: 202 ng/mL | Mean benzoylecgonine plasma concentration [17]: 38.4 ng/mL | Mean cocaine plasma concentration [17]: 96.9 ng/mL | Ecgonine methyl ester plasma concentration (mean) [18]: 189 ng/mL | Mean benzoylecgonine plasma concentration [18]: 29.6 ng/mL | Mean cocaine plasma concentration [18]: 19.7 ng/mL | Mean benzoylecgonine AUC(0-t) [19]: 1668 ng·min/mL | Mean cocaine AUC % Extrap [19]: 11.9% | Mean cocaine AUC(0-t) [19]: 5965 ng·min/mL | Mean cocaine AUC(0-∞) [19]: 6764 ng·min/mL | Mean cocaine C0 [19]: 226 ng/mL | Mean cocaine CI [19]: 150 mL/min/kg | Mean cocaine Vss [19]: 4.304 L/kg | Mean cocaine t½ [19]: 19.0 min | Ecgonine methyl ester plasma concentration (mean) [20]: 201 ng/mL | Mean benzoylecgonine plasma concentration [20]: 24.0 ng/mL | Mean cocaine plasma concentration [20]: 176 ng/mL | Ecgonine methyl ester plasma concentration (mean) [21]: 32.2 ng/mL | Mean benzoylecgonine plasma concentration [21]: 23.7 ng/mL | Mean cocaine plasma concentration [21]: 140 ng/mL | Ecgonine methyl ester plasma concentration (mean) [22]: 48.2 ng/mL | Mean benzoylecgonine plasma concentration [22]: 24.9 ng/mL | Mean cocaine plasma concentration [22]: 152 ng/mL | Ecgonine methyl ester plasma concentration (mean) [23]: 56.2 ng/mL | Mean benzoylecgonine plasma concentration [23]: 26.7 ng/mL | Mean cocaine plasma concentration [23]: 128 ng/mL | Ecgonine methyl ester plasma concentration (mean) [24]: 63.8 ng/mL | Mean benzoylecgonine plasma concentration [24]: 29.8 ng/mL | Mean cocaine plasma concentration [24]: 87.0 ng/mL | Ecgonine methyl ester plasma concentration (mean) [25]: 64.9 ng/mL | Mean benzoylecgonine plasma concentration [25]: 29.6 ng/mL | Mean cocaine plasma concentration [25]: 62.3 ng/mL | Ecgonine methyl ester plasma concentration (mean) [26]: 57.3 ng/mL | Mean benzoylecgonine plasma concentration [26]: 29.8 ng/mL | Mean cocaine plasma concentration [26]: 29.1 ng/mL | Mean benzoylecgonine AUC(0-t) [27]: 2741 ng·min/mL | Mean cocaine AUC % Extrap [27]: 18.4% | Mean cocaine AUC(0-t) [27]: 10044 ng·min/mL | Mean cocaine AUC(0-∞) [27]: 12313 ng·min/mL | Mean cocaine C0 [27]: 288 ng/mL | Mean cocaine CI [27]: 81.6 mL/min/kg | Mean cocaine Vss [27]: 2.94 L/kg | Mean cocaine t½ [27]: 23.9 min | Ecgonine methyl ester plasma concentration (mean) [28]: 138 ng/mL | Mean benzoylecgonine plasma concentration [28]: 43.9 ng/mL | Mean cocaine plasma concentration [28]: 265 ng/mL | Ecgonine methyl ester plasma concentration (mean) [29]: 39.8 ng/mL | Mean benzoylecgonine plasma concentration [29]: 41.2 ng/mL | Mean cocaine plasma concentration [29]: 245 ng/mL | Ecgonine methyl ester plasma concentration (mean) [30]: 42.9 ng/mL | Mean benzoylecgonine plasma concentration [30]: 40.0 ng/mL | Mean cocaine plasma concentration [30]: 218 ng/mL
